In series [1] the target is Mycobacterium tuberculosis ribosome large subunit 50S (Mycobacterium tuberculosis (endogenous in Mtb MC2 7000)) (UniProt A5U0A0). Briefly: co-sedimentation.
Series [2] has the same target.
The target is the same in series [3]. Briefly: cryo-EM structure.
Series [4] deals with the molecule itself.

Where a chain is given by its changes, count along the chain named. Names may count otherwise.

Chain of Mycobacterium tuberculosis ribosome large subunit 50S (Mycobacterium tuberculosis (endogenous in Mtb MC2 7000)) (A5U0A0 whole entry, looked up): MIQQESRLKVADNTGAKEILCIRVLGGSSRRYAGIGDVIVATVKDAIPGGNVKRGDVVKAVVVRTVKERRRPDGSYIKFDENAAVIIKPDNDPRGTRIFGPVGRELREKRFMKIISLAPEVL

In series [1], “Mycobacterium tuberculosis ribosome small subunit 30S (complex)” showed a percent of 50S in the 70S form, without RsfS greater than 70%.

B1: Escherichia coli RsfS, wild type, C-terminal His6 (natural protein)
chain: MQGKALQDFVIDKIDDLKGQDIIALDVQGKSSITDCMIICTGTSSRHVMSIADHVVQESRAAGLLPLGVEGENSADWIVVDLGDVIVHVMQEESRRLYELEKLWS
In series [2], B1 gave an inhibition in the Mtb ribosome cell-free translation assay of 80%.

B2: Mycobacterium tuberculosis ribosomal silencing factor RsfS, wild type, C-terminal His6 (natural protein)
chain: MTANREAIDMARVAAGAAAAKLADDVVVIDVSGQLVITDCFVIASGSNERQVNAIVDEVEEKMRQAGYRPARREGAREGRWTLLDYRDIVVHIQHQDDRNFYALDRLWGDCPVVPVDLSANSAGAQ
In the case of B2, the stoichiometry N in series [3] amounted to 1.

B3: Mycobacterium tuberculosis RsfS E74A, C-terminal His6 (natural protein)
chain: B2 chain with E74A
B3: the “stoichiometry N” value in series [4] stood at 2.
